Reference: patent US20230242646A1 (JJP BIOLOGICS SP Z O O, published 2023)

T1: chimeric bovine EC1-Fcgamma2R/human EC2-CD89 on HEK293F cells (bovine/human chimera)
T1 chain: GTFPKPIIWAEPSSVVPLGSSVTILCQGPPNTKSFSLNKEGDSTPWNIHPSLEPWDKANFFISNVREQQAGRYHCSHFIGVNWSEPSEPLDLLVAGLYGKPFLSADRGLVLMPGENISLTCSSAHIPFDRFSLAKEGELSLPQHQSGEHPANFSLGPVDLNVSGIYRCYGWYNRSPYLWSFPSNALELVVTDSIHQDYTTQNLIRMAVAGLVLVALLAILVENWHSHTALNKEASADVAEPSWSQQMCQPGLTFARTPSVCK

T2: membrane full-length cynomolgus monkey CD89 on HEK293F cells (cynomolgus monkey)
T2 construct: also called cynoCD89; cynomolgus EC1-CD89
T2 chain: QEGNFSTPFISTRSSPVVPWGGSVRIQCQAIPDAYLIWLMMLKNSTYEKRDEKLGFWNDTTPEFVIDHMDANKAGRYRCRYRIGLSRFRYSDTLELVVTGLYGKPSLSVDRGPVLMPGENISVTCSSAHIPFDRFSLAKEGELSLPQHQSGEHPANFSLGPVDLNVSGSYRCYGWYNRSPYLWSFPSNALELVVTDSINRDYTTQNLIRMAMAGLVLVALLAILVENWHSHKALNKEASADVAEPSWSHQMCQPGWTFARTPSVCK

T3: chimeric human/cynomolgus monkey CD89-I on HEK293F cells (human/cynomolgus chimera, UniProt P24071 22-287)
T3 construct: also called dGln22 - Lys46 human EC1-CD89; I (22-46)
T3 chain: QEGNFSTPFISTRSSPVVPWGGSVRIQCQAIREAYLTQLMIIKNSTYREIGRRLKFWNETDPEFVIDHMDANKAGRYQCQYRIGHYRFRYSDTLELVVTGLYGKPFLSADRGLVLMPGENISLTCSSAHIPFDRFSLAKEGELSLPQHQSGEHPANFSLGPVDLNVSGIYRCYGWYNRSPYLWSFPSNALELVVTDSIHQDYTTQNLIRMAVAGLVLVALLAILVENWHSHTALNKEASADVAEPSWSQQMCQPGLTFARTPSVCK

T4: chimeric human/cynomolgus monkey CD89-II on HEK293F cells (human/cynomolgus chimera, UniProt P24071 22-287)
T4 construct: also called dIle47 - Ile71 human EC1-CD89; II (47-71)
T4 chain: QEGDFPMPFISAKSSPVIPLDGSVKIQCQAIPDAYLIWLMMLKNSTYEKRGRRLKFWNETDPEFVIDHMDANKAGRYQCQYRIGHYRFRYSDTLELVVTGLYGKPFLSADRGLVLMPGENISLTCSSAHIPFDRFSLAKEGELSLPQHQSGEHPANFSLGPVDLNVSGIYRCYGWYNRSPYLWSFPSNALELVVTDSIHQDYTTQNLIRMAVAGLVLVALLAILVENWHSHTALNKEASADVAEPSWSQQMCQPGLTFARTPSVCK

T5: chimeric human/cynomolgus monkey CD89-III on HEK293F cells (human/cynomolgus chimera, UniProt P24071 22-287)
T5 construct: also called dGly72 - Gly96 human EC1-CD89; III (72-96)
T5 chain: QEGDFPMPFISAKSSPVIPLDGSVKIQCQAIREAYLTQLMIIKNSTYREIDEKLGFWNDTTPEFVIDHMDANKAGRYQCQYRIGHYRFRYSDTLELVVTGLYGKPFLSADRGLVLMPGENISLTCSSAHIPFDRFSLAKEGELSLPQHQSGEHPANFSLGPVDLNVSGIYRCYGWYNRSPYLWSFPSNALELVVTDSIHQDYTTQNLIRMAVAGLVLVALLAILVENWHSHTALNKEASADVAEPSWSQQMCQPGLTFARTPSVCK

T6: chimeric human/cynomolgus monkey CD89-hotspots on HEK293F cells (human/cynomolgus chimera, UniProt P24071 22-287)
T6 construct: also called dThr58, Gln59; dArg73, Arg74, Lys76
T6 chain: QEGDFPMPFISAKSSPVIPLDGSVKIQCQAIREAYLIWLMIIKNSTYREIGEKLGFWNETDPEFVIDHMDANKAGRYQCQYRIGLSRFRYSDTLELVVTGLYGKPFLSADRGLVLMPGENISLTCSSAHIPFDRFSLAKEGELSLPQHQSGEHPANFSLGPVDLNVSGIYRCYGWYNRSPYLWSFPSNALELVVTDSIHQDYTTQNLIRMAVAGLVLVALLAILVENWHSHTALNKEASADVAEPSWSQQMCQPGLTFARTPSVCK

T7: chimeric human/cynomolgus monkey CD89-IV on HEK293F cells (human/cynomolgus chimera, UniProt P24071 22-287)
T7 construct: also called dArg97 - Gly121 human EC1-CD89
T7 chain: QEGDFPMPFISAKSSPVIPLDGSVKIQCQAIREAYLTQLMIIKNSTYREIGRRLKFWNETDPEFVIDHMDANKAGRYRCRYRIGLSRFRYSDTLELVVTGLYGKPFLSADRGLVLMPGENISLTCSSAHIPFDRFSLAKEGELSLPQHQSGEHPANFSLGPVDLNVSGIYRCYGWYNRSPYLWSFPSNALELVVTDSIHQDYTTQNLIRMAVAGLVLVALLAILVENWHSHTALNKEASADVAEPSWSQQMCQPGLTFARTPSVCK

B1: CD89/IgA blocking mouse anti-human CD89-specific antibody 26D6 (antibody, V domains shown)
VH: QIQLVQSGPELKKPGETVKISCKASGYTLTKYGMNWVKQAPGKGLKWMGWINTYTGEPTYADDFKGRFAFSLETSASTAYLQINNLKNEDTATYFCASLPLFGRDSFAYWGQGTLVTVSA
VL: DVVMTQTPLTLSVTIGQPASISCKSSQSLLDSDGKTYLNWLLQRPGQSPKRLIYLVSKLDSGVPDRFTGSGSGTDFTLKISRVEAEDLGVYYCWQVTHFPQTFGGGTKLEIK
notes: also called 26B6 [sic]
B2: CD89/IgA blocking mouse anti-human CD89-specific antibody 16D6 (antibody, V domains shown)
VH: QVQLQQSGAELMKPGASVKISCKATGYTFSTYWIEWVKQRPGHGLEWIGEILPGSGSANYNEKFKGKATFTADTSSNTAYMQLSSLTFEDSAVYYCAKGFGSPYYYAMDYWGQGTSVTVSS
VL: EIVLTQSPALMAASPGEKVTITCSVSSSISSSNLHWYQQKSETSPKPWIYGTSKLASGVPVRFSGSGSGTSYSLTISNMEAEDAATYYCQQWSSFPLTFGGGTKLEIK
notes: also called 16D16 [sic]
B3: CD89/IgA blocking mouse anti-human CD89-specific antibody 9H7 (antibody, V domains shown)
VH: QIQLVQSGPELKKPGETVKISCKASGYTFKNYGMNWVKQAPGKGLKWMAWINTYTGEPTHTDDFKGRFVFSLETSASTAYLQINNLKNEDTATYFCARWGLGTTEEAARDYWGQGTTLTVSS
VL: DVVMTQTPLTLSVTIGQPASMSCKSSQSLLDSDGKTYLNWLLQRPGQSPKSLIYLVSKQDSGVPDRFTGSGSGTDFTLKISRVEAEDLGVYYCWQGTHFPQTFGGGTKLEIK

Key:
[1] = target: T8, recombinant C-terminal polyhistidine-tagged human (extracellular) CD89 (Sino Biological) (human, UniProt P24071 22-227); experiment: ELISA on coated rhuCD89
T8 construct: extracellular domain; bought protein; also called rhuCD89; soluble monomeric rhuCD89
Method: After extensive washing with PBS/0.05% Tween 20, plates were blocked with PBS/0.05% Tween 20/1% BSA (Roche) for 1 hour at RT. Subsequently, plates were incubated with 50 µL titrated (in block buffer) purified mouse anti-human CD89 antibody/well for 1 hour at RT. […] After extensive washing in PBS/0.05% Tween 20, binding of antibodies on rhuCD89 was determined with 1:5,000 diluted horseradish peroxidase (HRP)-conjugated goat anti-mouse IgG Fcy-specific antibodies (Jackson ImmunoResearch) for 1 hour at RT, followed by a ready-to-use solution of TMB substrate (Invitrogen) for colorimetric detection.

[2] = target: T9, membrane human CD89 on ex vivo primary human neutrophilic granulocytes or monocytic U937 cells (human, UniProt P24071 22-287); experiment: cell-based or functional assay
[3] = target: T9, membrane human CD89 on ex vivo primary …; experiment: cell-based or functional assay; remark: listed apart in the source
[4] = target: T10, membrane-bound full-length human CD89 on HEK293F cells (human, UniProt P24071 22-287); experiment: FACS HEK293F-huCD89, 10 ug/mL; competitor PE-MIP8a
T10 construct: 2 or transient transfectants; also called membrane human CD89; human FcaRI
Method: (§1) Then, 10 µL/tube (i.e., 0.1 × 10⁶ cells) of these cells were incubated with or without 100 µL purified mouse anti-human CD89 antibody at 10 µg/mL (in PBS/BSA/NaN₃) for 30 minutes at 4° C. […] After extensive washing in PBS/BSA/NaN₃, cells were fixed in 2% formaldehyde in PBS/BSA/NaN₃ for 30 minutes at 4° C.

[5] = target: T1, chimeric bovine EC1-Fcgamma2R/human …; experiment: FACS, transiently transfected HEK293F
Method: To this end, transient transfected HEK293F cells were put at 10 × 10⁶ cells/mL in ice-chilled phosphate-buffered saline containing 0.1% BSA (Sigma)/0.05% NaN₃ (PBS/BSA/NaN₃) supplemented with 50 µg/mL human IgGs (blocking Fcy receptors; Sigma) for 10 minutes at 4° C. Then, 10 µL/tube (i.e., 0.1 × 10⁶ cells) of these cells were incubated with or without 100 µL purified mouse anti-human CD89 antibody at 10 µg/mL (in PBS/BSA/NaN₃) for 30 minutes at 4° C. […] After extensive washing in PBS/BSA/NaN₃, cells were subsequently incubated with 1:200 diluted PE-conjugated goat anti-mouse IgG Fcy-specific antibodies (Jackson ImmunoResearch) for 30 minutes at 4° C. After extensive washing in PBS/BSA/NaN₃, cells were fixed in 2% formaldehyde in PBS/BSA/NaN₃ for 30 minutes at 4° C.

[6] = target: T2, membrane full-length cynomolgus monkey …; experiment: FACS, transiently transfected HEK293F
[7] = target: T3, chimeric human/cynomolgus monkey CD89-I …; experiment: FACS, 10 µg/mL, transiently transfected HEK293F
[8] = target: T4, chimeric human/cynomolgus monkey …; experiment: FACS, 10 µg/mL, transiently transfected HEK293F
[9] = target: T5, chimeric human/cynomolgus monkey …; experiment: FACS, 10 µg/mL, transiently transfected HEK293F
[10] = target: T6, chimeric human/cynomolgus monkey …; experiment: FACS, 10 µg/mL, transiently transfected HEK293F
[11] = target: T10, membrane-bound full-length human CD89 …; experiment: FACS, unlabelled antibody before A3-PE on HEK293F-huCD89
[12] = target: T10, membrane-bound full-length human CD89 …; experiment: FACS, antibody before serum IgA on HEK293F-huCD89; IgA detected
Method: Then, 10 µL/tube (i.e., 0.1 x 10⁶ cells) of these cells were incubated with 50 µL titrated (in PBS/BSA/NaN₃) purified mouse anti-human CD89 antibody/tube for 30 minutes at 4° C. […] After extensive washing in PBS/BSA/NaN₃, 1:200 diluted PE-conjugated streptavidin (Jackson ImmunoResearch) was added, and incubated for 30 minutes at 4° C. After extensive washing in PBS/BSA/NaN₃, cells were fixed in 2% formaldehyde in PBS/BSA/NaN₃ for 30 minutes at 4° C.

[13] = target: T10, membrane-bound full-length human CD89 …; experiment: FACS, antibody before secretory IgA on HEK293F-huCD89; IgA detected
[14] = target: T10, membrane-bound full-length human CD89 …; experiment: FACS HEK293F-huCD89
Method: After extensive washing in PBS/BSA/NaN₃, cells were subsequently incubated with 1:200 diluted PE-conjugated goat anti-human IgG Fcy-specific antibodies (Jackson ImmunoResearch) for 30 minutes at 4° C. After extensive washing in PBS/BSA/NaN₃, cells were fixed in 2% formaldehyde in PBS/BSA/NaN₃ for 30 minutes at 4° C.

[15] = target: T8, recombinant C-terminal …; experiment: ELISA, coated rhuCD89
[16] = target: T10, membrane-bound full-length human CD89 …; experiment: FACS HEK293F-huCD89, 10 ug/mL; competitor PE-A3
Method: as §1

[17] = target: T10, membrane-bound full-length human CD89 …; experiment: FACS HEK293F-huCD89, 10 ug/mL; competitor PE-A59
Method: as §1

[18] = target: T6, chimeric human/cynomolgus monkey …; experiment: FACS, transiently transfected HEK293F
Method: To this end, transient transfected HEK293F cells were put at 10 × 10⁶ cells/mL in ice-chilled phosphate-buffered saline containing 0.1% BSA (Sigma)/0.05% NaN₃ (PBS/BSA/NaN₃) supplemented with 50 µg/mL human IgGs (blocking FcY receptors; Sigma) for 10 minutes at 4° C. Then, 10 µL/tube (i.e., 0.1 × 10⁶ cells) of these cells were incubated with or without 100 µL purified mouse anti-human CD89 antibody at 10 µg/mL (in PBS/BSA/NaN₃) for 30 minutes at 4° C. […] After extensive washing in PBS/BSA/NaN₃, cells were subsequently incubated with 1:200 diluted PE-conjugated goat anti-mouse IgG Fcy-specific antibodies (Jackson ImmunoResearch) for 30 minutes at 4° C. After extensive washing in PBS/BSA/NaN₃, cells were fixed in 2% formaldehyde in PBS/BSA/NaN₃ for 30 minutes at 4° C.

[19] = target: T2, membrane full-length cynomolgus monkey …; experiment: FACS, 10 µg/mL, transiently transfected HEK293F
Method: To this end, transient transfected HEK293F cells were put at 10 x 10⁶ cells/mL in ice-chilled phosphate-buffered saline containing 0.1% BSA (Sigma)/0.05% NaN₃ (PBS/BSA/NaN₃) supplemented with 50 µg/mL human IgGs (blocking FcY receptors; Sigma) for 10 minutes at 4° C. Then, 10 µL/tube (i.e., 0.1 × 10⁶ cells) of these cells were incubated with or without 100 µL purified mouse anti-human CD89 antibody at 10 µg/mL (in PBS/BSA/NaN₃) for 30 minutes at 4° C. […] After extensive washing in PBS/BSA/NaN₃, cells were subsequently incubated with 1:200 diluted PE-conjugated goat anti-mouse IgG Fcy-specific antibodies (Jackson ImmunoResearch) for 30 minutes at 4° C. After extensive washing in PBS/BSA/NaN₃, cells were fixed in 2% formaldehyde in PBS/BSA/NaN₃ for 30 minutes at 4° C.

[20] = target: T7, chimeric human/cynomolgus monkey …; experiment: FACS, 10 µg/mL, transiently transfected HEK293F
[21] = target: T10, membrane-bound full-length human CD89 …; experiment: FACS on HEK293F-huCD89
Method: Then, 10 µL/tube (i.e., 0.1 x 10⁶ cells) of these cells were incubated with 100 µL titrated (in PBS/BSA/NaN₃) purified mouse anti-human CD89 antibody/tube for 30 minutes at 4° C. […] After extensive washing in PBS/BSA/NaN₃, cells were subsequently incubated with 1:200 diluted PE-conjugated goat anti-mouse IgG Fcy-specific antibodies (Jackson ImmunoResearch) for 30 minutes at 4° C. After extensive washing in PBS/BSA/NaN₃, cells were fixed in 2% formaldehyde in PBS/BSA/NaN₃ for 30 minutes at 4° C.

[22] = target: T9, membrane human CD89 on ex vivo primary …; experiment: cell-based or functional assay; remark: listed apart in the source
[23] = target: T10, membrane-bound full-length human CD89 …; experiment: FACS, unlabelled antibody before MIP8a-PE on HEK293F-huCD89
[24] = target: T8, recombinant C-terminal …; experiment: ELISA, antibody before serum IgA on coated rhuCD89; IgA detected
Method: After extensive washing with PBS/0.05% Tween 20, plates were blocked with PBS/0.05% Tween 20/1% BSA (Roche) for 1 hour at RT. Subsequently, plates were incubated with 25 µL titrated (in block buffer) purified mouse anti-human CD89 antibody/well for 30 minutes at RT. […] After extensive washing in PBS/0.05% Tween 20, 1:10,000 diluted HRP-conjugated streptavidin (Jackson ImmunoResearch) was added, and incubated for 1 hour at RT, followed by a ready-to-use solution of TMB substrate (Invitrogen) for colorimetric detection.

Binder	EC50 (read off the curve) [1]	IC50 (read off the bars), binding of granulocytes to plate-bound serum IgA [Donor 2] [2]	% blocking of PE-MIP8a binding [4]	binding result [5]	binding result [7]	binding result [8]	binding result [9]	IC50 (read off the curve) [11]	IC50 (read off the curve) [12]	IC50 (read off the curve) [13]	other results
B1	~0.008 µg/mL	~0.1 µg/mL	> 90%	no binding (tested: 10 µg/mL)	binds	binds	binds	~0.3 µg/mL	~0.2 µg/mL	~0.3 µg/mL	IC50 (read off the bars), binding of granulocytes to plate-bound serum IgA [Donor 3] [3]: ~1 µg/mL; binding result [6]: no binding (tested: 10 µg/mL); binding result [10]: binds
B2	–	–	< 25%	no binding (tested: 10 µg/mL)	binds	binds	binds	–	–	–	EC50 [14]: 1.62 µg/mL; EC50 [15]: 0.119 µg/mL; % blocking of PE-A3 binding [16]: < 25%; % blocking of PE-A59 binding [17]: < 25%; binding result [18]: no binding (tested: 10 µg/mL); binding result [19]: binds; binding result [20]: binds
B3	~0.01 µg/mL	~0.2 µg/mL	> 90%	–	–	–	–	~0.4 µg/mL	~0.2 µg/mL	~0.4 µg/mL	EC50 (read off the curve) [21]: ~0.2 µg/mL; IC50 (read off the bars), binding of granulocytes to plate-bound serum IgA [Donor 1] [22]: ~0.9 µg/mL; IC50 (read off the curve) [23]: ~0.4 µg/mL; IC50 (read off the curve) [24]: ~0.03 µg/mL
